Data on four molecules can be found in publication PMC9412841 (ACS Applied Materials & Interfaces, 2022).

Data set [1] can be described thus: μPET/μCT stability study of ^64Cu-labeled pTrMA-co-DOTA (fresh, plasma-incubated, free ^64CuCl2). The format is in vivo, C57BL/6 mice. The settings on record: female mice, n = 4, i.v., fresh 200 μCi, plasma-incubated (37 °C, 24 h) 100 μCi, ^64CuCl2 100 μCi, mean ± SEM. The protocol:
To determine if organ signal attenuation was occurring because ^64Cu was released from pTrMA-co-DOTA in vivo due to insufficiently strong DOTA chelation, the stability of the radiolabeled polymer as well as the biodistribution and excretion of free ^64Cu was investigated by further μPET/μCT imaging. Mice (female, n = 4) were i.v. injected with the fresh ^64Cu-labeled pTrMA-co-DOTA (200 μCi), ^64Cu-pTrMA-co-DOTA after incubating in plasma at 37 °C for 24 h (100 μCi), and free ^64CuCl2 (100 μCi). […] If ^64Cu was readily leached from the DOTA group when incubated in plasma, the shifting biodistribution in the organs with time would have been the same as with the mice exposed to free ^64CuCl2. […]
Figure 6 Time course biodistribution and excretion of fresh ^64Cu-labeled pTrMA-co-DOTA (blue), plasma-incubated ^64Cu-labeled pTrMA-co-DOTA (red), and free ^64CuCl2 (green) from the organs (a) brain, (b) heart, (c) liver, (d) left kidney, (e) right kidney, (f) bladder, (g) muscle, (h) left lung, (i) right lung, (j) spleen, and (k) intestine of female (n = 4) mice. […] Data were quantified from μPET images.
^64Cu-radiolabeled pTrMA-co-DOTA was incubated in plasma collected from a female C57BL/6 mouse at 37 °C for 24 h. […] Co-registered μPET/μCT images were analyzed, and MIPs were generated using AMIDE software.

The conditions of data set [2]: C57HL/6 mice, 72 h; cited from earlier work. The source says:
In the final time points of the extended μPET/μCT experiment, the signal in the liver still appeared to be going down, while the study co ...

Data set [3] in a line: Differential scanning calorimetry, melting temperature of insulin. The format is physicochemical. The following applies: DSC; insulin 10 mg/mL in 10 mM HCl; pTrMA 5 mol equiv or trehalose 50 mg/mL. An excerpt:
In addition, differential scanning calorimetry was undertaken to study the melting temperature of the insulin. […] Thus, it is unlikely that the change in melting temperature is a significant factor in protein stabilization.

A short description of data set [4]: Long-term insulin stability at 4 °C, RP-HPLC. The format is physicochemical. The protocol: To study relevant storage, the formulations were kept at a standard refrigeration temperature at 4 °C for 46 weeks.
The samples were stored at 4 °C for […], followed by regular sampling.

Data set [5] can be described thus: Accelerated heating assay of insulin (90 °C, 30 min), HPLC and PAGE. The format is physicochemical. The settings on record: DPBS pH 7.4, insulin 1 mg/mL final, pTrMA 28.1 kDa 2 mol equiv, 0.22 μm filtered, RP-HPLC, n = 3. The protocol:
The formulations were heated to 90 °C for 30 min. […] The heated samples were also investigated by native polyacrylate gel electrophoresis (PAGE) for changes to MW or isoelectric point for evidence of chemical changes or aggregate formation (Figure 8b).
For all *p < 0.05, **p < 0.01, and ***p < 0.001.
(§1) The samples were stored at 4 °C or heated to 90 °C for 30 min in ambient light. Aliquots of each insulin sample were used directly for SDS and native PAGE as well as ThT assay. […] ThT was prepared at 50 μM (0.0159 mg/mL) in 20 mM DPBS pH 7.4. Into a black 96-well plate, 50 μL of each sample was pipetted. To these was added 250 μL of ThT solution, and the plate was incubated at room temperature (21 °C) for 20 min. Fluorescence intensity was measured on a Tecan M1000 plate reader (λex = 450 nm, λem = 482 nm).

Data set [6] can be described thus: Thioflavin T (ThT) fibrillation assay. The format is physicochemical. The following applies: 90 °C, 30 min; ThT 50 μM, 20 min at 21 °C; λex 450 nm, λem 482 nm; n = 3. The protocol:
as §1, with “In addition, differential scanning calorimetry was undertaken to study the melting temperature of the insulin. […] Thus, it is unlikely that the change in melting temperature is a significant factor in protein stabilization. […] The” for “The”

Data set [7] in a line: SEC-MALS oligomerization state of insulin. The following applies: insulin 30 mg/mL, 0.1 M PBS pH 7.4; pTrMA 26.0 kDa 30 mg/mL; fresh or heated 90 °C 30 min. The format is physicochemical.
The test system of data set [8] is IgG and IgM antibodies specific to OVA or pTrMA. In words: Antibody immunogenicity study, IgG and IgM immune ELISA of serum. The following applies: female CD-1 mice, n = 5–6; i.p. at weeks 0 and 2; OVA 2 mg/kg, pTrMA 10 wt %; serum weeks 1-3; ELISA vs naïve serum. The format is in vivo. Here is the method: To study the adaptive immune response in the form of antibody production, mice were challenged at weeks 0 and 2 with the model immunogenic protein ovalbumin (OVA, 2 mg/kg) as a positive control, pTrMA (10 wt % or 100 mg/mL), or both OVA + pTrMA (2 mg/kg OVA, 10 wt % pTrMA) via intraperitoneal (i.p.) injection. Serum was collected each week, and the immunoglobulin IgG and IgM antibodies specific to OVA or pTrMA were measured by ELISA. For ELISA, OVA or bovine serum albumin (BSA) conjugated with pTrMA (Figure S1) was adsorbed for 16–18 h on microplate wells to capture any antibodies in the serum. Serum from challenged mice and naïve mice as a negative control was measured for antibodies against the challenge antigen, OVA, or the BSA–pTrMA conjugate. Serum from the mice treated with OVA and pTrMA was tested against both OVA and the BSA–pTrMA conjugate. Testing against both antigens measured if the polymer increases the immunogenicity of OVA and, conversely, if the presence of an immunogenic protein, OVA, elicited an immunogenic response to the polymer (Figure S2).
Figure 2 Antibody levels in mice specific to OVA or pTrMA (BSA–pTrMA conjugate) antigens over 3 weeks after i.p. injection of OVA (2 mg/kg), OVA + pTrMA (2 mg/kg, 10 wt %), or pTrMA (10 wt %) at weeks 0 and 2 (n = 5–6). […]
A general note: In an ELISA, binding on a coated surface is turned into a signal by an enzyme label.

As to `[64Cu+2].[Cl-].[Cl-]` [^64CuCl2], the “total signal remaining at the 24 h time point” value in data set [1] is listed as 56.3 ± 19.7%. Besides, in data set [2], the “accumulation in the kidneys” value was 10 % ID/cc and the “accumulation in the liver” value was 13 % ID/cc.

Take `OC[C@H]1O[C@H](O[C@H]2O[C@H](CO)[C@@H](O)[C@H](O)[C@H]2O)[C@H](O)[C@@H](O)[C@@H]1O` [trehalose]: in data set [3], the “melting temperature of insulin (alone or with the named additive)” value is 88.8 °C.

Regarding “insulin: Recombinant human insulin purchased from Sigma-Aldrich”, in data set [4] (DPBS pH 7.4, insulin 1 mg/mL final, pTrMA 10.1 kDa 2 mol equiv, 0.22 μm filtered, RP-HPLC, n = 3, mean ± SEM), the “intact insulin, % of the original level, after 20 weeks” value came to 67.4 ± 7.0%. Besides, the “appearance of solution (aggregation) during weeks 20-46” value in data set [4] (DPBS pH 7.4, visual) is “visually cloudy”. The “melting temperature of insulin (alone or with the named additive)” value in data set [3] was found to be 86.6 °C. Also, the “degradation (deamidation at AsnB3) after heating, HPLC” value in data set [5] is on record as “very little intact insulin remaining”. The ThT fluorescence signal entry in data set [6] is on record as “significantly higher (p < 0.01) fluorescence signal than fresh insulin”. In data set [7], the “oligomerization state by SEC-MALS” value is given as “no hexameric insulin was present”.

B1: OVA: model immunogenic protein ovalbumin, positive control (protein, UniProt P01012 2-386, looked up)
Ovalbumin: GSIGAASMEFCFDVFKELKVHHANENIFYCPIAIMSALAMVYLGAKDSTRTQINKVVRFDKLPGFGDSIEAQCGTSVNVHSSLRDILNQITKPNDVYSFSLASRLYAEERYPILPEYLQCVKELYRGGLEPINFQTAADQARELINSWVESQTNGIIRNVLQPSSVDSQTAMVLVNAIVFKGLWEKAFKDEDTQAMPFRVTEQESKPVQMMYQIGLFRVASMASEKMKILELPFASGTMSMLVLLPDEVSGLEQLESIINFEKLTEWTSSNVMEERKIKVYLPRMKMEEKYNLTSVLMAMGITDVFSSSANLSGISSAESLKISQAVHAAHAEINEAGREVVGSAEAGVDAASVSEEFRADHPFLFCIKHIATNAVLFFGRCVSP
B1: in data set [8], the “OVA-specific IgG response” value is “increased in both weeks 2 and 3”; the “OVA-specific IgM response” value is given as “only elevated in the first week”.
